From PMC6218473, “Recognition of host Clr-b by the inhibitory NKR-P1B receptor provides a basis for missing-self recognition” (Nature Communications, 2018)

Tests used:
[1] = molecular target: extended Clr-b, C-terminally extended version terminating at Ser207, His-tagged (mouse) (UniProt Q91V08); test: AUC; sedimentation velocity, 120 μM each of extended Clr-b and NKR-P1B constructs, alone and in combination; 10 mM Tris-HCl pH 8.0, 0.15 M NaCl, 20 °C
NKp65 (Homo sapiens) = NKp65 (Homo sapiens) (UniProt D3W0D1); conditions: cited from earlier work
[2] = molecular target: Clr-b residues 74-194, E. coli expressed and refolded (mouse) (UniProt Q91V08); test: AUC; sedimentation velocity, Clr-b alone at higher concentrations (25–200 μM); 10 mM Tris-HCl pH 8.0, 0.15 M NaCl, 20 °C; monomer to dimer
[3] = molecular target: Clr-b residues 74-194, E. coli expressed and refolded (mouse) (UniProt Q91V08); test: crystal structure; Clr-b and NKR-P1B^B6 mixed 1:1, 5 mg/ml; 21% PEG 3350, 0.1 M Bis/Tris pH 5.9, 5% glycerol, 0.2 M ammonium sulfate, 20 °C; 2.9 Å
[4] = molecular target: T1, NKR-P1B (B6 allele) C-type lectin-like domain with C-terminal BirA tag and His tag, biotinylated monomer (mouse, UniProt Q99JB4 89-215, biotin on the BirA tag); test: SPR
T1 chain: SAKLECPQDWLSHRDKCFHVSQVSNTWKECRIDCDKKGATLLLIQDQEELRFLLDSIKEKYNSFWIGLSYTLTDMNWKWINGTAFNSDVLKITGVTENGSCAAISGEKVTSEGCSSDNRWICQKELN

[5] = molecular target: the molecule itself; test: crystal structure; Clr-b and NKR-P1B^B6 mixed 1:1, 5 mg/ml; 21% PEG 3350, 0.1 M Bis/Tris pH 5.9, 5% glycerol, 0.2 M ammonium sulfate, 20 °C; 2.9 Å

extended Clr-b, C-terminally extended version terminating at Ser207, His-tagged (mouse), sequence (Q91V08 74-207): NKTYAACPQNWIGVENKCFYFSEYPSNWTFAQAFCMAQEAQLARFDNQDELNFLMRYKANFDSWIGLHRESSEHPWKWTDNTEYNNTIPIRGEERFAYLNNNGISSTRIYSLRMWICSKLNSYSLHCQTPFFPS
NKp65 (Homo sapiens), sequence (D3W0D1 whole entry, the tested form may be a part): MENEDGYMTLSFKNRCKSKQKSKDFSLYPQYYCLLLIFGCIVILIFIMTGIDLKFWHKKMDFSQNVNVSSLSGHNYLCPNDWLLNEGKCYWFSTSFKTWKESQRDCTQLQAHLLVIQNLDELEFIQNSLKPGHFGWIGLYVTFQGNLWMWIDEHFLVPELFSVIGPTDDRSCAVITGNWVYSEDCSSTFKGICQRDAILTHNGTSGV

Molecule: extended NKR-P1B (B6 allele) containing the membrane proximal stalk, starting from Gln72, His-tagged (from UniProt Q99JB4 72-223) (domain or fragment)
- fraction of total in the species of the complex [1]: 6%
- stoichiometry N (NKR-P1B per Clr-b chain) [1]: 0.5

Molecule: KACL (from UniProt Q6UVW9)
- Kd (NKp65 (Homo sapiens)): 0.0007 µM

Molecule: Clr-b residues 74-194, E. coli expressed and refolded (from UniProt Q91V08 74-194) (domain or fragment)
- stoichiometry N [2]: 2
- stoichiometry N [3]: 2

B1: m12, mouse cytomegalovirus-encoded decoy ligand (ligand)
chain: TNVLAAPKNTSCVKKFTVSERRPPPEPGKCMSLLGSTLVNKQAANKQVDKPVTILKIFRCPVEEYLCMNATWSGRLFVRTQDNREIIFGNISFTSTDSSPTTLTGISTLKPWPLSSDLWIHSGTGDIYMFSNASFSDPKCYITLCVLRKNAHIPVQRANFAFGVTDENLVTPTSTRTVDN
- Kd [4]: 21.6 µM

B2: NKR-P1B (B6 allele) C-type lectin-like domain, His-tagged (domain or fragment, mouse)
chain: SAKLECPQDWLSHRDKCFHVSQVSNTWKECRIDCDKKGATLLLIQDQEELRFLLDSIKEKYNSFWIGLSYTLTDMNWKWINGTAFNSDVLKITGVTENGSCAAISGEKVTSEGCSSDNRWICQKELN
modifications: N-acetylglucosamine on Asn169 (seen in the structure)
notes: NKR-P1B, B6 (C57BL/6) allele of Klrb1b, mouse, C-type lectin-like domain; Construct for structural and AUC experiments; also called ectodomain of NKR-P1B^B6
- stoichiometry N [5]: 2
- stoichiometry N (NKR-P1B per Clr-b chain) [3]: 0.5
